Test in all cases: BLI
(Biolayer interferometry detects binding as a change in optical thickness at a sensor tip.)

Test [1] deals with T1, EGFRvIII (human, UniProt P00533).
The target in test [2] is T2, EGFR (wild-type, His-tagged or biotinylated) (human, UniProt P00533).
Test [3] concerns the target T1, EGFRvIII. The source holds these as a separate data set.
Test [4] has as its target T2, EGFR (wild-type, His-tagged or …). The source holds these as a separate data set.

Where two headings read alike, the source gives them in different places.

B1: SI-95X53 (antibody)
chain 1: not shown
chain 2: DIVMTQSPSSVSLSLGDRVTITCHSSQDINSNIGWLQQKPGKAFKGLIYHGTNLDDGVPSRFSGSGSGADYTLTISSLQAEDFATYYCVQYAQFPWTFGPGTKLEIKRTVAAPSVFIFPPSDEQLKSGTASVVCLLNNFYPREAKVQWKVDNALQSGNSQESVTEQDSKDSTYSLSSTLTLSKADYEKHKVYACEVTHQGLSSPVTKSFNRGEC
As usually defined, the Kd is the equilibrium constant for the complex coming apart. On to B1, for which the Kd in test [1] amounted to 1.28 nM; in test [2] it was 18.2 nM.

B2: SI-95X24 (antibody)
chain 1: not shown
chain 2: DVQLQESGPSLVKPSQSLSLTCTVTGYSITSDFAWNWIRQFPGNKLEWMGYISYSGNTRYNPSLKSRISITRDTSKNQFFLQLNSVTIEDTATYYCVTAGRGFPYWGQGTLVTVSAGGGGSGGGGSGGGGSDILMTQSPSSMSVSLGDTVSITCHSSQDINSNIGWLQQRPGKSFKGLIYHGTNLDDEVPSRFSGSGSGADYSLTISSLESEDFADYYCVQYAQFPWTFGGGTKLEIKGGGGSGSGSGGGGGSGGGGSGGGGSDIQMTQSPSSLSASVGDRVTITCRSSQNIVHSNGNTYLDWYQQTPGKAPKLLIYKVSNRFSGVPSRFSGSGSGTDFTFTISSLQPEDIATYYCFQYSHVPWTFGQGTKLQITRTVAAPSVFIFPPSDEQLKSGTASVVCLLNNFYPREAKVQWKVDNALQSGNSQESVTEQDSKDSTYSLSSTLTLSKADYEKHKVYACEVTHQGLSSPVTKSFNRGEC
Take B2: the values for the Kd in test [3] and in test [4] were 1.45 nM and 7.94 nM, respectively.

B3: SI-95X61 (antibody)
chain 1: not shown
chain 2: EIVLTQSPSTLSVSPGERATFSCRASQSIGTNIHWYQQKPGKPPRLLIKYASESISGIPDRFSGSGSGTEFTLTISSVQSEDFAVYYCQQNNNWPTTFGPGTKLTVLRTVAAPSVFIFPPSDEQLKSGTASVVCLLNNFYPREAKVQWKVDNALQSGNSQESVTEQDSKDSTYSLSSTLTLSKADYEKHKVYACEVTHQGLSSPVTKSFNRGECGGGGSGGGGGSGGGGSGGGGSQVQLQESGPSLVKPSQTLSLTCTVSGYSITSDFAWNWIRQFPGRKLEWMGYISYSGNTRYNPSLKSRFTISRDTSKNQFYLKLRSVTIADTAVYYCVTAGRGFPYWGQGTLVTVSSGGGGSGGGGSGGGGSDIVMTQSPSSVSLSLGDRVTITCHSSQDINSNIGWLQQKPGKAFKGLIYHGTNLDDGVPSRFSGSGSGADYTLTISSLQAEDFATYYCVQYAQFPWTFGPGTKLEIK
B3: the Kd in test [1] was determined as 0.573 nM; in test [2], 4.89 nM.

B4: SI-95X30 (antibody)
chain 1: not shown
chain 2: DIQMTQSPSSLSASVGDRVTITCRSSQNIVHSNGNTYLDWYQQTPGKAPKLLIYKVSNRFSGVPSRFSGSGSGTDFTFTISSLQPEDIATYYCFQYSHVPWTFGQGTKLQITRTVAAPSVFIFPPSDEQLKSGTASVVCLLNNFYPREAKVQWKVDNALQSGNSQESVTEQDSKDSTYSLSSTLTLSKADYEKHKVYACEVTHQGLSSPVTKSFNRGECGGGGSGSGSGGGGGSGGGGSGGGGSDVQLQESGPSLVKPSQSLSLTCTVTGYSITSDFAWNWIRQFPGNKLEWMGYISYSGNTRYNPSLKSRISITRDTSKNQFFLQLNSVTIEDTATYYCVTAGRGFPYWGQGTLVTVSAGGGGSGGGGSGGGGSDILMTQSPSSMSVSLGDTVSITCHSSQDINSNIGWLQQRPGKSFKGLIYHGTNLDDEVPSRFSGSGSGADYSLTISSLESEDFADYYCVQYAQFPWTFGGGTKLEIK
Regarding B4, the Kd in test [3] came out at 1.24 nM; in test [4] it was 8.84 nM.

B5: SI-95X25 (antibody)
chain 1: not shown
chain 2: DVQLQESGPSLVKPSQSLSLTCTVTGYSITSDFAWNWIRQFPGNKLEWMGYISYSGNTRYNPSLKSRISITRDTSKNQFFLQLNSVTIEDTATYYCVTAGRGFPYWGQGTLVTVSAGGGGSGGGGSGGGGSDILMTQSPSSMSVSLGDTVSITCHSSQDINSNIGWLQQRPGKSFKGLIYHGTNLDDEVPSRFSGSGSGADYSLTISSLESEDFADYYCVQYAQFPWTFGGGTKLEIKGGGGSGGGGSGSGSGGGGGSGGGGSGGGGSDIQMTQSPSSLSASVGDRVTITCRSSQNIVHSNGNTYLDWYQQTPGKAPKLLIYKVSNRFSGVPSRFSGSGSGTDFTFTISSLQPEDIATYYCFQYSHVPWTFGQGTKLQITRTVAAPSVFIFPPSDEQLKSGTASVVCLLNNFYPREAKVQWKVDNALQSGNSQESVTEQDSKDSTYSLSSTLTLSKADYEKHKVYACEVTHQGLSSPVTKSFNRGEC
B5: the Kd in test [3] was 1.21 nM; in test [4], 13.4 nM.

B6: SI-95X3 (antibody)
chain 1: not shown
chain 2: DILMTQSPSSMSVSLGDTVSITCHSSQDINSNIGWLQQRPGKSFKGLIYHGTNLDDEVPSRFSGSGSGADYSLTISSLESEDFADYYCVQYAQFPWTFGGGTKLEIKRTVAAPSVFIFPPSDEQLKSGTASVVCLLNNFYPREAKVQWKVDNALQSGNSQESVTEQDSKDSTYSLSSTLTLSKADYEKHKVYACEVTHQGLSSPVTKSFNRGEC
As for B6, the Kd worked out at 0.375 nM in test [3] and 0.68 nM in test [4].

B7: SI-95X66 (antibody)
chain 1: not shown
chain 2: DILMTQSPSSMSVSLGDTVSITCHSSQDINSNIGWLQQRPGKSFKGLIYHGTNLDDEVPSRFSGSGSGADYSLTISSLESEDFADYYCVQYAQFPWTFGGGTKLEIKRTVAAPSVFIFPPSDEQLKSGTASVVCLLNNFYPREAKVQWKVDNALQSGNSQESVTEQDSKDSTYSLSSTLTLSKADYEKHKVYACEVTHQGLSSPVTKSFNRGEC
B7: the values for the dissociation constant Kd in test [1] and in test [2] were 0.576 nM and 4.65 nM, respectively.

B8: SI-95X35 (antibody)
chain 1: not shown
chain 2: DILMTQSPSSMSVSLGDTVSITCHSSQDINSNIGWLQQRPGKSFKGLIYHGTNLDDEVPSRFSGSGSGADYSLTISSLESEDFADYYCVQYAQFPWTFGGGTKLEIKRTVAAPSVFIFPPSDEQLKSGTASVVCLLNNFYPREAKVQWKVDNALQSGNSQESVTEQDSKDSTYSLSSTLTLSKADYEKHKVYACEVTHQGLSSPVTKSFNRGEC
As to B8, the Kd stood at 0.628 nM in test [3] and 0.686 nM in test [4].

B9: SI-95X67 (antibody)
chain 1: not shown
chain 2: DILMTQSPSSMSVSLGDTVSITCHSSQDINSNIGWLQQRPGKSFKGLIYHGTNLDDEVPSRFSGSGSGADYSLTISSLESEDFADYYCVQYAQFPWTFGGGTKLEIKRTVAAPSVFIFPPSDEQLKSGTASVVCLLNNFYPREAKVQWKVDNALQSGNSQESVTEQDSKDSTYSLSSTLTLSKADYEKHKVYACEVTHQGLSSPVTKSFNRGEC
Regarding B9, the results for the Kd in test [1] and in test [2] were 1.24 nM and 7.06 nM, respectively.

B10: SI-95X18 (antibody)
chain 1: not shown
chain 2: DIQMTQSPSSLSASVGDRVTITCRSSQNIVHSNGNTYLDWYQQTPGKAPKLLIYKVSNRFSGVPSRFSGSGSGTDFTFTISSLQPEDIATYYCFQYSHVPWTFGQGTKLQITRTVAAPSVFIFPPSDEQLKSGTASVVCLLNNFYPREAKVQWKVDNALQSGNSQESVTEQDSKDSTYSLSSTLTLSKADYEKHKVYACEVTHQGLSSPVTKSFNRGEC
In the case of B10, the Kd in test [3] is 0.593 nM; in test [4], 4.17 nM.

B11: SI-95X27 (antibody)
chain 1: not shown
chain 2: DILMTQSPSSMSVSLGDTVSITCHSSQDINSNIGWLQQRPGKSFKGLIYHGTNLDDEVPSRFSGSGSGADYSLTISSLESEDFADYYCVQYAQFPWTFGGGTKLEIKGGGGSGGGGSGGGGSDVQLQESGPSLVKPSQSLSLTCTVTGYSITSDFAWNWIRQFPGNKLEWMGYISYSGNTRYNPSLKSRISITRDTSKNQFFLQLNSVTIEDTATYYCVTAGRGFPYWGQGTLVTVSAGGGGSGSGSGGGGGSGGGGSGGGGSDIQMTQSPSSLSASVGDRVTITCRSSQNIVHSNGNTYLDWYQQTPGKAPKLLIYKVSNRFSGVPSRFSGSGSGTDFTFTISSLQPEDIATYYCFQYSHVPWTFGQGTKLQITRTVAAPSVFIFPPSDEQLKSGTASVVCLLNNFYPREAKVQWKVDNALQSGNSQESVTEQDSKDSTYSLSSTLTLSKADYEKHKVYACEVTHQGLSSPVTKSFNRGEC
For B11, the Kd in test [3] stood at 0.507 nM; in test [4], 10.7 nM.

B12: SI-95X29 (antibody)
chain 1: not shown
chain 2: DIQMTQSPSSLSASVGDRVTITCRSSQNIVHSNGNTYLDWYQQTPGKAPKLLIYKVSNRFSGVPSRFSGSGSGTDFTFTISSLQPEDIATYYCFQYSHVPWTFGQGTKLQITRTVAAPSVFIFPPSDEQLKSGTASVVCLLNNFYPREAKVQWKVDNALQSGNSQESVTEQDSKDSTYSLSSTLTLSKADYEKHKVYACEVTHQGLSSPVTKSFNRGECSGSGSGGGGGSGGGGSGGGGSDVQLQESGPSLVKPSQSLSLTCTVTGYSITSDFAWNWIRQFPGNKLEWMGYISYSGNTRYNPSLKSRISITRDTSKNQFFLQLNSVTIEDTATYYCVTAGRGFPYWGQGTLVTVSAGGGGSGGGGSGGGGSDILMTQSPSSMSVSLGDTVSITCHSSQDINSNIGWLQQRPGKSFKGLIYHGTNLDDEVPSRFSGSGSGADYSLTISSLESEDFADYYCVQYAQFPWTFGGGTKLEIK
B12: the Kd worked out at 1.12 nM in test [3] and 10.1 nM in test [4].

B13: SI-95X31 (antibody)
chain 1: not shown
chain 2: DIQMTQSPSSLSASVGDRVTITCRSSQNIVHSNGNTYLDWYQQTPGKAPKLLIYKVSNRFSGVPSRFSGSGSGTDFTFTISSLQPEDIATYYCFQYSHVPWTFGQGTKLQITRTVAAPSVFIFPPSDEQLKSGTASVVCLLNNFYPREAKVQWKVDNALQSGNSQESVTEQDSKDSTYSLSSTLTLSKADYEKHKVYACEVTHQGLSSPVTKSFNRGECGGGGSGGGGSGSGSGGGGGSGGGGSGGGGSDVQLQESGPSLVKPSQSLSLTCTVTGYSITSDFAWNWIRQFPGNKLEWMGYISYSGNTRYNPSLKSRISITRDTSKNQFFLQLNSVTIEDTATYYCVTAGRGFPYWGQGTLVTVSAGGGGSGGGGSGGGGSDILMTQSPSSMSVSLGDTVSITCHSSQDINSNIGWLQQRPGKSFKGLIYHGTNLDDEVPSRFSGSGSGADYSLTISSLESEDFADYYCVQYAQFPWTFGGGTKLEIK
Turning to B13, the Kd in test [3] was found to be 1.08 nM; in test [4], 10.5 nM.

B14: SI-95X48 (antibody)
chain 1: not shown
chain 2: EIVLTQSPSTLSVSPGERATFSCRASQSIGTNIHWYQQKPGKPPRLLIKYASESISGIPDRFSGSGSGTEFTLTISSVQSEDFAVYYCQQNNNWPTTFGPGTKLTVLRTVAAPSVFIFPPSDEQLKSGTASVVCLLNNFYPREAKVQWKVDNALQSGNSQESVTEQDSKDSTYSLSSTLTLSKADYEKHKVYACEVTHQGLSSPVTKSFNRGEC
B14: the Kd in test [1] is 0.404 nM; in test [2] it was 25.5 nM.

For the origin of these results see patent US20260337278 (published 2026).
